In article doi:10.1101/2022.06.28.498018 (bioRxiv, 2022):

How the values were obtained:
[1] = target: P116 variant Trp681Ala (Mycoplasma pneumoniae) (UniProt P75556); test: SEC-MALS
cryo-EM structure = target: the molecule itself; test: cryo-EM structure

Which ratio of dimers to monomers (dimers per monomer) [1] does the source give for “P116 variant Trp681Ala (from UniProt P75556 30-957) (domain or fragment)” here?
The ratio of dimers to monomers (dimers per monomer) was 0.25.

B1: P116 ectodomain (residues 30-957) from Mycoplasma pneumoniae (domain or fragment, UniProt P75556 30-957, looked up)
chain: NKTHQVEHESEQSDFQDIRFGLNSVKLPKAQPAAATRITVENGTDKLVNYKSSPQQLFLAKNALKDKLQGEFDKFLSDAKAFPALTADLQEWVDQQLFNPNQSFFDLSAPRSNFTLSSDKKASLDFIFRFTNFTESVQLLKLPEGVSVVVDSKQSFDYYVNASAQKLLVLPLSLPDYTLGLNYMFDHITLNGKVVNKFSFNPFKTNLNLAFSNVYNGVDVFEAQKNLVGKGKYLNTHVKAEDVKKDVNANIKNQFDIAKIIAELMGKALKEFGNQQEGQPLSFLKVMDKVKEDFEKLFNLVRPGLGKFVKDLIQSSSQAENKITVYKLIFDNKKTILNLLKELSIPELNSSLGLVDVLFDGITDSDGLYERLQSFKDLIVPAVKTNEKTAALSPLIEELLTQKDTYVFDLIQKHKGILTNLLKNFLADFQKSTPFMADQVAIFTELFDNEGAFDLFGEADFVDKIAELFLTKRTVKNGEKIETKDSLLVTSLKSLLGEKVAALGDLLDSYIFKNELLNRSVEVAKAEAKDTKGATDYKKEQAKALKKLFKHIGENTLSKTNLDKITLKEVKNTENVELEETETTLKVKKLDVEYKVELGNFEIKNGLIKAMLEFLPDTKDLETTLDKLLFKGESYKAMKDKYIKEGFPGYGWAKGVVPGAFESIENTFKSAIDKTKSIRDLFGDMLFGNDLSSVKETDSFITLGGSFDIKYGGENLNVLPAYYSLINSEIGYQIIGVDTTIDATKVKVELKNKEYKGKSPAINGQVKLSQSFFNVWTNMFDSITKQIFQKKYEFKDNIQVFARNEDNTSRLELDISDPEQRVIPFAFVDGFGIQLKAVDKNITKEAGNTEPKSPVIQLYEALNKEKDQKQQSKQSPKQLDTKTQLGYLLKLGDNWSKDDYKSLIDDTIINNNYLEASFNSKITVDRLG
Which “stoichiometry N” value (cryo-EM structure) does the source give for B1 here?
Its value is 2.
